Usually stoichiometry N stands for the number of molecules, sites or subunits per partner or assembly.

Experimental findings from PMC10261145, “Ceramide sensing by human SPT-ORMDL complex for establishing sphingolipid homeostasis” (Nature Communications, 2023) are described below.

Substitutions are numbered along the chain they refer to. In names and notes the source's numbering stands.

Series [1] has as its target T1, serine palmitoyltransferase (SPT) complex (SPTLC1, SPTLC2, SPTssa) (human, UniProt O15269 1-473; O15270 1-562; Q969W0 1-71).
T1 construct: SPTLC1, human, codon-optimized full-length cDNA; SPTLC2, human, codon-optimized full-length cDNA; SPTssa, human, codon-optimized full-length cDNA; Also purified alone, without ORMDLs; also called WT SPT complex; source: HEK293F, transiently co-transfected, purified (anti-Flag resin, SEC, GDN); copies: + +
T1 sequence (looked up) 1: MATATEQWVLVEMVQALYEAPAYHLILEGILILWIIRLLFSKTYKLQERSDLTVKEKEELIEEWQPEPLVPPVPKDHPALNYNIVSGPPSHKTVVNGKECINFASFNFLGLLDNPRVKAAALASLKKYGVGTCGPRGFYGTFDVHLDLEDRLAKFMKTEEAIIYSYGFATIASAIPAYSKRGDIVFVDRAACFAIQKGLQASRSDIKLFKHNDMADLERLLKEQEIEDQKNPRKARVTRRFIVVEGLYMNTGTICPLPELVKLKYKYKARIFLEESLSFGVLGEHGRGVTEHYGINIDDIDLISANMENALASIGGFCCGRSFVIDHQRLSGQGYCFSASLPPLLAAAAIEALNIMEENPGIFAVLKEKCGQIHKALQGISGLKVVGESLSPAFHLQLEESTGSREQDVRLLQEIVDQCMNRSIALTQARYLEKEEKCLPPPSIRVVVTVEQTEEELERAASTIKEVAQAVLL
T1 sequence (looked up) 2: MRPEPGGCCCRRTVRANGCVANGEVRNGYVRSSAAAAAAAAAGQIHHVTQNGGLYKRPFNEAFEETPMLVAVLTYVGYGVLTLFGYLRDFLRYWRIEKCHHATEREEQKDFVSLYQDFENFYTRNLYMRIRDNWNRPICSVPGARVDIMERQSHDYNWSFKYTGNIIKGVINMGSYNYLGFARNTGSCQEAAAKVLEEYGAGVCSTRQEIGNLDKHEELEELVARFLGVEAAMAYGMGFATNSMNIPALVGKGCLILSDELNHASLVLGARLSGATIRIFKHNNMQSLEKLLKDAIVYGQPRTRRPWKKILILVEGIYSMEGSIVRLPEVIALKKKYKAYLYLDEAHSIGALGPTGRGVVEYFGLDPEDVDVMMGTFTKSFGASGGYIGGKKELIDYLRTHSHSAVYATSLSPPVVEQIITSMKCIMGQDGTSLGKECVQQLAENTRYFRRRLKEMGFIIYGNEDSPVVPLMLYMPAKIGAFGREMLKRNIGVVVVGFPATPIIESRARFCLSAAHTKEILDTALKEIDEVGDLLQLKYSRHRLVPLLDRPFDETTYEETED
T1 sequence (looked up) 3: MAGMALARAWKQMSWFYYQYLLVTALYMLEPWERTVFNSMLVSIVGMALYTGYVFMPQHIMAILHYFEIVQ
Nature of the series: cryo-EM structure; single-particle cryo-EM of co-expressed and co-purified SPT-ORMDL3 complexes at ~18 mg/ml in 25 mM HEPES pH 7.5, 150 mM NaCl, 0.01% GDN; apo, or WT preincubated with 1 mM C6-ceramide on ice for 1 hr. The note with it: both partners purified.

Series [2] deals with the molecule itself. The series is described as above.

B1: ORMDL3-N13A (natural protein, human, UniProt Q8N138 1-153, looked up)
chain: MNVGTAHSEVNPATRVMNSRGIWLSYVLAIGLLHIVLLSIPFVSVPVVWTLTNLIHNMGMYIFLHTVKGTPFETPDQGKARLLTHWEQMDYGVQFTASRKFLTITPIVLYFLTSFYTKYDQIHFVLNTVSLMSVLIPKLPQLHGVRIFGINKY
notes: ORMDL3, human, full-length cDNA with N13A; also called ORMDL3-N13A mutant; source: HEK293F, transiently co-transfected with the SPT subunits, purified as a complex (anti-Flag resin, SEC, GDN)
Turning to B1, the binding result in series [1] was “binds”.

B2: SPT-ORMDL3 complex (SPTLC1, SPTLC2, SPTssa, ORMDL3-FL) (complex, human)
chain 1: T1 sequence (looked up) 1
chain 2: T1 sequence (looked up) 2
chain 3: T1 sequence (looked up) 3
chain 4: B1 chain with A13N
notes: SPTLC1, human, codon-optimized full-length cDNA; SPTLC2, human, codon-optimized full-length cDNA; SPTssa, human, codon-optimized full-length cDNA; ORMDL3, human, codon-optimized full-length cDNA; One protomer; two protomers form the dimeric complex seen by cryo-EM; also called WT SPT-ORMDL3 complex; SPT-ORMDL3 protomer; source: HEK293F, transiently co-transfected, purified (anti-Flag resin, SEC, …)
In the case of B2, the “stoichiometry N” value in series [2] amounted to 2.

B3: SPT-ORMDL3 (ORMDL3-N13A) complex (complex, human)
chain 1: T1 sequence (looked up) 1
chain 2: T1 sequence (looked up) 2
chain 3: T1 sequence (looked up) 3
chain 4: B1 chain
notes: SPTLC1, human, codon-optimized full-length cDNA; SPTLC2, human, codon-optimized full-length cDNA; SPTssa, human, codon-optimized full-length cDNA; ORMDL3, human, full-length cDNA with N13A; One protomer; also called ORMDL3-N13A variant; ORMDL3-N13A protomer; source: HEK293F, transiently co-transfected, purified (anti-Flag resin, SEC, GDN); copies: + + +
For the molecule B3, the binding result in series [2] is recorded as “binds”.

B4: ORMDL3-ΔN2 (deletion of the Asn2 residue) (natural protein, human, UniProt Q8N138 1-153, looked up)
chain: MVGTAHSEVNPNTRVMNSRGIWLSYVLAIGLLHIVLLSIPFVSVPVVWTLTNLIHNMGMYIFLHTVKGTPFETPDQGKARLLTHWEQMDYGVQFTASRKFLTITPIVLYFLTSFYTKYDQIHFVLNTVSLMSVLIPKLPQLHGVRIFGINKY
notes: ORMDL3, human, full-length cDNA with Asn2 deleted; also called ORMDL3-ΔN2 mutant; source: HEK293F, transiently co-transfected with the SPT subunits, purified as a complex (anti-Flag resin, SEC, GDN)
Consider B4, for which, in series [1], the binding result is recorded as “binds”.

B5: SPT-ORMDL3 (ORMDL3-ΔN2) complex (complex, human)
chain 1: T1 sequence (looked up) 1
chain 2: T1 sequence (looked up) 2
chain 3: T1 sequence (looked up) 3
chain 4: B4 chain
notes: SPTLC1, human, codon-optimized full-length cDNA; SPTLC2, human, codon-optimized full-length cDNA; SPTssa, human, codon-optimized full-length cDNA; ORMDL3, human, full-length cDNA with Asn2 deleted; One protomer; also called ORMDL3-ΔN2 variant; ORMDL3-ΔN2 protomer; source: HEK293F, transiently co-transfected, purified (anti-Flag resin, SEC, GDN); copies: + + +
B5: the binding result in series [2] is on record as “binds”.
